“Also recorded” adds a separate entry of the source.
Assays:
[1] = Distribution of ^125I-insulin and ^125I-S961 following ICV delivery; type: in vivo, CD-1 mice
Protocol: The scalp was reflected in anesthetized mice and a hole was drilled 1 mm lateral and 0.2 mm posterior to the Bregma. […] Brains were removed between 2 and 60 min later and dissected into regions. […] Weighed brain regions and serum were counted in a gamma counter (Wizard2, Perkin Elmer, Waltham, MA, USA). […] The %Inj was divided by the weight of the region (g/region) or the volume serum measured (ul/serum) to calculate the %Inj/g and %Inj/ml. Pilot studies were performed to identify ventricular injection using this method.

[2] = cited from earlier work
[3] = test system: blood-brain barrier (BBB); assay: Whole brain vascular space / BBB permeability to ^99mTc-albumin following CNS treatment; type: in vivo, CD-1 mice
Protocol: For all radioactive studies, the right jugular vein and left carotid artery were exposed. […] Mice were injected IV with the radioactive tracer 10 min later. […] The whole brain, olfactory bulb, and in some cases the hypothalamus were removed and weighed. […] Each mouse yielded a single serum sample and time-matched brain sample. Exposure time was calculated from the formula:1 [drawing 1] , where Am is the level of radioactivity (CPM) per gram of brain tissue at time (t), Cpt is the level of radioactivity (CPM) per ml arterial serum at time t, Ki (μl/g-min) is the steady-state rate of unidirectional solute influx from blood to brain. Vi (μl/g) is the level of solute in rapid, reversible equilibrium between plasma and brain. Subtracting ratios for ^99mTc-albumin from the corresponding ^125I-insulin brain/serum (B/S) ratio yielded a delta B/S ratio, which corrects the B/S ratio for ^125I-insulin for vascular space. The linear portion of the relation between the delta B/S ratio versus exposure time is represented in the figures and was used to calculate the Ki (μl/g-min) with its standard error term, and the y-intercept determined representing the Vi(μl/g).

[4] = molecular target: insulin transport across the blood-brain barrier (BBB); details: per mouse; cited from earlier work
Protocol: The average blood volume of a mouse is about 77–80 ml/kg. Given that our male CD-1 mice are approximately 30 g at the time of study, these mice have around 2.4 ml of blood. […] Therefore, while th ...

[5] = Immunoactive serum insulin measurement (MSD mouse insulin kit) after ICV treatment; type: in vivo, CD-1 mice; details: male, kit cross reacts with human insulin
Protocol: Whole blood was centrifuged at 3,200xg for 10 min. Serum was collected, aliquoted, and frozen at -80 °C until measurement. […] This kit cross reacts with human insulin.

[6] = test system: regional brain vascular space; assay: Regional ^99mTc-albumin brain/serum ratios (vascular space) following CNS treatment; type: in vivo, CD-1 mice; details: olfactory bulb; male; 30 min after 1 µg IN insulin
Protocol: For the regional studies, brain and serum were collected at a single time point post central nervous system (CNS) manipulation. For IN studies following ICV delivery, S961 (1 µg in PB) or vehicle was given ICV, and IN ^125I-insulin was immediately administered. 30 min later, brain and serum were collected. […] For IV studies following ICV delivery, S961 (1 µg in PB) or vehicle was given ICV and 10 min later, IV ^125I-insulin and ^99mTc-albumin was injected. For the IV studies, brain and serum were collected 5 min later. Olfactory bulb (OB) and the whole brain dissected into 10 regions were weighed: striatum (St), frontal cortex (FC), hypothalamus (Hy), hippocampus (HC), thalamus (Th), parietal cortex (PC), occipital cortex (OC), cerebellum (CB), midbrain (MB), and pons-medulla (PM). Whole brain (WB) is the summed value from individual regions. The levels of radioactivity in serum (50 µl) and brain samples were counted in a gamma counter (Wizard2, Perkin Elmer, Waltham, MA, USA). %Inj/g for IN distribution and Delta B/S ratios following IV administration were calculated as described above. ^99mTc-albumin B/S ratios are also presented to identify changes in regional vascular space following CNS manipulation.

[7] = test system: insulin transport across the blood-brain barrier (BBB); assay: ^125I-insulin blood-to-brain BBB pharmacokinetics by multiple-time regression analysis (MTRA) after CNS treatment; type: in vivo, CD-1 mice; details: for Ki of ^125I-insulin (unidirectional influx blood to brain) / Vi of ^125I-insulin (reversible vascular binding): male mice; for Ki of ^125I-insulin (unidirectional influx blood to brain): MTRA slope ± SE; for Vi of ^125I-insulin (reversible vascular binding): MTRA y-intercept
Protocol: For all radioactive studies, the right jugular vein and left carotid artery were exposed. […] The whole brain, olfactory bulb, and in some cases the hypothalamus were removed and weighed. […] Each mouse yielded a single serum sample and time-matched brain sample. Exposure time was calculated from the formula:1 [drawing 1] , where Cp is the level of radioactivity (CPM) in serum at time (t). […] Vi (μl/g) is the level of solute in rapid, reversible equilibrium between plasma and brain. […] The linear portion of the relation between the delta B/S ratio versus exposure time is represented in the figures and was used to calculate the Ki (μl/g-min) with its standard error term, and the y-intercept determined representing the Vi(μl/g). Regression analyses and other statistical analyses were performed with Prism 9.0 (GraphPad Softward Inc., San Diego, CA, USA). For all MTRA pharmacokinetic studies, the slope of the linear regression lines (Ki), reported with their correlation coefficients (r), and y-intercepts (Vi) were compared statistically using Prism equivalent to an analysis of covariance (ANCOVA). For these studies, the individual data points are presented in the representative Figures. For the regional studies, the regional B/S levels for each sex were reported with their standard error terms and analyzed by a two-way analysis of variance (ANOVA) followed by Tukey's post hoc test when appropriate.

[8] = olfactory bulb, 1 µg ICV insulin 10 min before IV ^125I-insulin
[9] = olfactory bulb, 1 µg IN insulin 30 min before IV ^125I-insulin
[10] = whole brain, 1 µg ICV insulin 10 min before IV ^125I-insulin

^125I-insulin: human insulin radioactively labeled with ^125I; tracer for BBB transport
amount of ^125I-insulin entering the blood following ICV delivery ([1]; mouse, in vivo): < 3 %Inj/ml | time by which tracer is distributed throughout the brain after ICV delivery ([1]; mouse, in vivo): ≤ 5 min | time to appearance in serum after ICV injection ([1]; mouse, in vivo): ≤ 5 min | ^125I-insulin present in whole brain after IN delivery ([2]; mouse, in vivo): approximately 0.13 %Inj/g | time of peak brain level after IN administration ([2]; mouse, in vivo): about 30 min

^99mTc-albumin: bovine serum albumin labeled with Technetium-99m; marker for vascular space
^99mTc-albumin whole brain B/S ratio ([3]; mouse, in vivo, iv): 8 to 12 µL/g

human insulin
IV bolus of unlabeled insulin necessary to reduce the ^125I-insulin BBB Ki by 50% [4]: 121 ng | expected amount per gram of brain tissue after 1 µg ICV administration ([1]; calculated from %Inj/g at 10 min and 1 µg ICV dose): approximately 605 ng per gram of brain tissue | level in whole brain after ICV delivery ([1]; radiolabelled tracer ICV, whole brain at 10 min): approximately 60.5 %Inj/g | insulin present in hypothalamus after IN delivery ([2]; hypothalamus, 30 min after IN insulin delivery, male CD-1 mice): 0.23 %Inj/g | change in serum insulin level vs vehicle ([5]; 30 min after 1 µg ICV human insulin): nearly doubled; also recorded: two-fold increase | rise in serum insulin level ([5]; 30 min after 1 µg human insulin ICV): 5 ng/mL | increase in ^99mTc-albumin vs vehicle [6]: 43% | effect on whole brain vascular space or BBB leakage measured with ^99mTc-albumin ([3]; 1 µg ICV or IN insulin (males), 1 µg ICV S961 (males, females)): no effect | Ki of ^125I-insulin (unidirectional influx blood to brain) ([7]; hypothalamus, 1 µg IN insulin 30 min before IV ^125I-insulin, regression ns): 0.57 ± 0.88 µL/g/min | slowing of ^125I-insulin blood-to-brain transport rate vs vehicle ([7]; hypothalamus, male, 1 µg IN insulin, 30 min): about 85% | Ki of ^125I-insulin (unidirectional influx blood to brain) [7, 8]: ~ 0.3 µl/g-min | Ki of ^125I-insulin (unidirectional influx blood to brain) ([7]; olfactory bulb, 1 µg ICV insulin 10 min before IV ^125I-insulin, listed as Insulin): 0.35 ± 0.16 µL/g/min | Vi of ^125I-insulin (reversible vascular binding) [7, 8]: 14.6 ± 2.2 µL/g | Ki of ^125I-insulin (unidirectional influx blood to brain) [7, 9]: 2.74 ± 0.52 µL/g/min | Vi of ^125I-insulin (reversible vascular binding) [7, 9]: 9.7 ± 3.9 µL/g | decrease of ^125I-insulin blood-to-brain transport rate vs vehicle ([7]; olfactory bulb, male, 1 µg ICV insulin, 10 min): about 82% | Ki of ^125I-insulin (unidirectional influx blood to brain) [7, 10]: ~ 0.3 µl/g-min | Ki of ^125I-insulin (unidirectional influx blood to brain) ([7]; whole brain, 1 µg ICV insulin 10 min before IV ^125I-insulin, listed as Insulin): 0.30 ± 0.11 µL/g/min | Vi of ^125I-insulin (reversible vascular binding) [7, 10]: 7.9 ± 1.5 µL/g
